One assay concerns the target CD28 (human, UniProt P10747). Put plainly: cell-based or functional assay.
The target in assay [1] is T1, PD-1 (human, UniProt Q15116). Put plainly: cell-based or functional assay.
Assay [2] concerns the target CD2 (Homo sapiens (Human), UniProt P06729). Description: flow cytometry, CHO-CD2 cells. Background: In flow cytometry, cells or beads pass a laser one at a time.
A further assay has as its target human PD-1 (human, UniProt Q15116). Description: flow cytometry, Jurkat/IL-2/PD-1 cells.
Assay [3] deals with T1, PD-1. Put plainly: cell-based or functional assay. The source holds these as a separate data set.
In assay [4] the target is CD2 (human, UniProt P06729). Description: cell-based or functional assay.

B1: PD-L1 303-ICOSL 2264 (SEQ ID NO 3496) (other)
chain: FTVTVPKDLYVVEYGSNMTIECKFPVEKQLDLAALIVYWEMEGKDIIQFVHGEEDQKAQHSSYRQRARLLKDQLSLGNAALQITDVKLQDAGVYRCMISYGGGADYKRITVKVNAGSGGSGGGGSGGGGSDTQEKEVRAMVGSDVELSCACPEGSRFDLNDVYVYWQTSESKTVVTYHIPQHSSLEYVDSRYRNRALMSPAGMLRGDFSLRLFNVTPQDEQKFHCLVLSRSLGFQEVLSVEVTLHVAANFSVDYKDDDDKHHHHHH
With B1, the “% CD25 Hi FoxP3 +” value with CD28 and in the assay with PD-1 [1] was 21.7 % at 100 nM throughout.

B2: CD58 3650-PD-L1 303-PD-L1 303-CD58 3650 (other)
chain: SQQIYGVVYGNVTFHVPSNVPLKEVLWKKQKDKVAELENSEFRAFSSFKNRVYLDTVSGSLTIYNLTSSDEDEYEMESPNITDTMKFFLYVLESGGGGSGGGGSGGGGSFTVTVPKDLYVVEYGSNMTIECKFPVEKQLDLAALIVYWEMEGKDIIQFVHGEEDQKAQHSSYRQRARLLKDQLSLGNAALQITDVKLQDAGVYRCMISYGGGADYKRITVKVNAGGGGSGGGGSGGGGSFTVTVPKDLYVVEYGSNMTIECKFPVEKQLDLAALIVYWEMEGKDIIQFVHGEEDQKAQHSSYRQRARLLKDQLSLGNAALQITDVKLQDAGVYRCMISYGGGADYKRITVKVNAGSGGSGGGGSGGGGSSQQIYGVVYGNVTFHVPSNVPLKEVLWKKQKDKVAELENSEFRAFSSFKNRVYLDTVSGSLTIYNLTSSDEDEYEMESPNITDTMKFFLYVLESGSGGGGSDYKDDDDKHHHHHH
Regarding B2, the EC50 was 14.4 nM with CD2 [2] and 6.6 nM in the assay with human PD-1.

B3: PD-L1 303-ICOSL 2264-Fc + Fc (Fc fusion)
chain 1: FTVTVPKDLYVVEYGSNMTIECKFPVEKQLDLAALIVYWEMEGKDIIQFVHGEEDQKAQHSSYRQRARLLKDQLSLGNAALQITDVKLQDAGVYRCMISYGGGADYKRITVKVNAGSGGGSGGGGSGGGGSDTQEKEVRAMVGSDVELSCACPEGSRFDLNDVYVYWQTSESKTVVTYHIPQHSSLEYVDSRYRNRALMSPAGMLRGDFSLRLFNVTPQDEQKFHCLVLSRSLGFQEVLSVEVTLHVAANFSVGGGGSGSGGGGSEPKSSDKTHTCPPCPAPEAEGAPSVFLFPPKPKDTLMISRTPEVTCVVVDVSHEDPEVKFNWYVDGVEVHNAKTKPREEQYNSTYRVVSVLTVLHQDWLNGKEYKCKVSNKALPAPIEKTISKAKGQPREPQVYTLPPCREEMTKNQVSLWCLVKGFYPSDIAVEWESNGQPENNYKTTPPVLDSDGSFFLYSKLTVDKSRWQQGNVFSCSVMHEALHNHYTQKSLSLSPGK
chain 2: HMSSVSAQAAAEPKSSDKTHTCPPCPAPEAEGAPSVFLFPPKPKDTLMISRTPEVTCVVVDVSHEDPEVKFNWYVDGVEVHNAKTKPREEQYNSTYRVVSVLTVLHQDWLNGKEYKCKVSNKALPAPIEKTISKAKGQPREPQVCTLPPSREEMTKNQVSLSCAVKGFYPSDIAVEWESNGQPENNYKTTPPVLDSDGSFFLYSKLTVDKSRWQQGNVFSCSVMHEALHNHYTQKSLSLSPGK
In the case of B3, the “% CD25 Hi FoxP3 +” value with CD28 and with PD-1 [1] was 29.8 % at 100 nM in each case.

B4: CD58 3650-CD58 3650-PD-L1 303-PD-L1 303 (other)
chain: SQQIYGVVYGNVTFHVPSNVPLKEVLWKKQKDKVAELENSEFRAFSSFKNRVYLDTVSGSLTIYNLTSSDEDEYEMESPNITDTMKFFLYVLESGGGGSGGGGSGGGGSSQQIYGVVYGNVTFHVPSNVPLKEVLWKKQKDKVAELENSEFRAFSSFKNRVYLDTVSGSLTIYNLTSSDEDEYEMESPNITDTMKFFLYVLESGGGGSGGGGSGGGGSFTVTVPKDLYVVEYGSNMTIECKFPVEKQLDLAALIVYWEMEGKDIIQFVHGEEDQKAQHSSYRQRARLLKDQLSLGNAALQITDVKLQDAGVYRCMISYGGGADYKRITVKVNAGSGGSGGGGSGGGGSFTVTVPKDLYVVEYGSNMTIECKFPVEKQLDLAALIVYWEMEGKDIIQFVHGEEDQKAQHSSYRQRARLLKDQLSLGNAALQITDVKLQDAGVYRCMISYGGGADYKRITVKVNAGSGGGGSDYKDDDDKHHHHHH
With B4, the EC50 with CD2 [2] worked out at 24.4 nM; in the assay with human PD-1, 19.5 nM.

B5: PD-L1 303-ICOSL 2264-COMP (other)
chain: FTVTVPKDLYVVEYGSNMTIECKFPVEKQLDLAALIVYWEMEGKDIIQFVHGEEDQKAQHSSYRQRARLLKDQLSLGNAALQITDVKLQDAGVYRCMISYGGGADYKRITVKVNAGGGGSGGGGSGGGGSDTQEKEVRAMVGSDVELSCACPEGSRFDLNDVYVYWQTSESKTVVTYHIPQHSSLEYVDSRYRNRALMSPAGMLRGDFSLRLFNVTPQDEQKFHCLVLSRSLGFQEVLSVEVTLHVAANFSVGGGGSGGGGSGGGGSDLGPQMLRELQETNAALQDVRELLRQQVREITFLKNTVMECDACGDYKDDDDKHHHHHH
B5: the “% CD25 Hi FoxP3 +” value with CD28 and in the assay with PD-1 [1] was 21 % at 100 nM each time.

B6: PD-L1 303-ICOSL 2264-PD-L1 303 (other)
chain: FTVTVPKDLYVVEYGSNMTIECKFPVEKQLDLAALIVYWEMEGKDIIQFVHGEEDQKAQHSSYRQRARLLKDQLSLGNAALQITDVKLQDAGVYRCMISYGGGADYKRITVKVNAGGGGSGGGGSGGGGSDTQEKEVRAMVGSDVELSCACPEGSRFDLNDVYVYWQTSESKTVVTYHIPQHSSLEYVDSRYRNRALMSPAGMLRGDFSLRLFNVTPQDEQKFHCLVLSRSLGFQEVLSVEVTLHVAANFSVGGGGSGGGGSGGGGSFTVTVPKDLYVVEYGSNMTIECKFPVEKQLDLAALIVYWEMEGKDIIQFVHGEEDQKAQHSSYRQRARLLKDQLSLGNAALQITDVKLQDAGVYRCMISYGGGADYKRITVKVNADYKDDDDKHHHHHH
For B6, the “% CD25 Hi FoxP3 +” value with CD28 and in the assay with PD-1 [1] was 23.2 % at 100 nM throughout.

B7: PD-L1 303-ICOSL 2264-Fc (Fc fusion)
chain: FTVTVPKDLYVVEYGSNMTIECKFPVEKQLDLAALIVYWEMEGKDIIQFVHGEEDQKAQHSSYRQRARLLKDQLSLGNAALQITDVKLQDAGVYRCMISYGGGADYKRITVKVNAGSGGSGGGGSGGGGSDTQEKEVRAMVGSDVELSCACPEGSRFDLNDVYVYWQTSESKTVVTYHIPQHSSLEYVDSRYRNRALMSPAGMLRGDFSLRLFNVTPQDEQKFHCLVLSRSLGFQEVLSVEVTLHVAANFSVGGGGSGSGGGGSEPKSSDKTHTCPPCPAPEAEGAPSVFLFPPKPKDTLMISRTPEVTCVVVDVSHEDPEVKFNWYVDGVEVHNAKTKPREEQYNSTYRVVSVLTVLHQDWLNGKEYKCKVSNKALPAPIEKTISKAKGQPREPQVYTLPPSRDELTKNQVSLTCLVKGFYPSDIAVEWESNGQPENNYKTTPPVLDSDGSFFLYSKLTVDKSRWQQGNVFSCSVMHEALHNHYTQKSLSLSPG
B7: the “% CD25 Hi FoxP3 +” value with CD28 and in the assay with PD-1 [1] was 6.6 % at 100 nM throughout.

B8: PD-L1 303-ICOSL 2264-ICOSL 2264-PD-L1 303 (other)
chain: FTVTVPKDLYVVEYGSNMTIECKFPVEKQLDLAALIVYWEMEGKDIIQFVHGEEDQKAQHSSYRQRARLLKDQLSLGNAALQITDVKLQDAGVYRCMISYGGGADYKRITVKVNAGGGGSGGGGSGGGGSDTQEKEVRAMVGSDVELSCACPEGSRFDLNDVYVYWQTSESKTVVTYHIPQHSSLEYVDSRYRNRALMSPAGMLRGDFSLRLFNVTPQDEQKFHCLVLSRSLGFQEVLSVEVTLHVAANFSVGGGGSGGGGSGGGGSDTQEKEVRAMVGSDVELSCACPEGSRFDLNDVYVYWQTSESKTVVTYHIPQHSSLEYVDSRYRNRALMSPAGMLRGDFSLRLFNVTPQDEQKFHCLVLSRSLGFQEVLSVEVTLHVAANFSVGSGGSGGGGSGGGGSFTVTVPKDLYVVEYGSNMTIECKFPVEKQLDLAALIVYWEMEGKDIIQFVHGEEDQKAQHSSYRQRARLLKDQLSLGNAALQITDVKLQDAGVYRCMISYGGGADYKRITVKVNADYKDDDDKHHHHHH
Consider B8, for which the “% CD25 Hi FoxP3 +” value with CD28 and with PD-1 [1] was 0.89 % at 100 nM in each case.

B9: CD58 3650-PD-L1 303-Fc (Fc fusion)
chain: SQQIYGVVYGNVTFHVPSNVPLKEVLWKKQKDKVAELENSEFRAFSSFKNRVYLDTVSGSLTIYNLTSSDEDEYEMESPNITDTMKFFLYVLESGGGGSGGGGSGGGGSFTVTVPKDLYVVEYGSNMTIECKFPVEKQLDLAALIVYWEMEGKDIIQFVHGEEDQKAQHSSYRQRARLLKDQLSLGNAALQITDVKLQDAGVYRCMISYGGGADYKRITVKVNAGSGGGGSEPKSSDKTHTCPPCPAPEAEGAPSVFLFPPKPKDTLMISRTPEVTCVVVDVSHEDPEVKFNWYVDGVEVHNAKTKPREEQYNSTYRVVSVLTVLHQDWLNGKEYKCKVSNKALPAPIEKTISKAKGQPREPQVYTLPPSRDELTKNQVSLTCLVKGFYPSDIAVEWESNGQPENNYKTTPPVLDSDGSFFLYSKLTVDKSRWQQGNVFSCSVMHEALHNHYTQKSLSLSPG
On to B9, for which the “100 nM IFN-gamma (pg/mL), SEB assay” value with PD-1 [3] and with CD2 [4] was 5440 pg/mL each time.

B10: PD-L1 303-PD-L1 303-ICOSL 2264-ICOSL 2264 (other)
chain: FTVTVPKDLYVVEYGSNMTIECKFPVEKQLDLAALIVYWEMEGKDIIQFVHGEEDQKAQHSSYRQRARLLKDQLSLGNAALQITDVKLQDAGVYRCMISYGGGADYKRITVKVNAGGGGSGGGGSGGGGSFTVTVPKDLYVVEYGSNMTIECKFPVEKQLDLAALIVYWEMEGKDIIQFVHGEEDQKAQHSSYRQRARLLKDQLSLGNAALQITDVKLQDAGVYRCMISYGGGADYKRITVKVNAGGGGSGGGGSGGGGSDTQEKEVRAMVGSDVELSCACPEGSRFDLNDVYVYWQTSESKTVVTYHIPQHSSLEYVDSRYRNRALMSPAGMLRGDFSLRLFNVTPQDEQKFHCLVLSRSLGFQEVLSVEVTLHVAANFSVGSGGSGGGGSGGGGSDTQEKEVRAMVGSDVELSCACPEGSRFDLNDVYVYWQTSESKTVVTYHIPQHSSLEYVDSRYRNRALMSPAGMLRGDFSLRLFNVTPQDEQKFHCLVLSRSLGFQEVLSVEVTLHVAANFSVDYKDDDDKHHHHHH
With B10, the “% CD25 Hi FoxP3 +” value with CD28 and with PD-1 [1] was 4.28 % at 100 nM in each case.

B11: PD-L1 303-CD58 3650-Fc (Fc fusion)
chain: FTVTVPKDLYVVEYGSNMTIECKFPVEKQLDLAALIVYWEMEGKDIIQFVHGEEDQKAQHSSYRQRARLLKDQLSLGNAALQITDVKLQDAGVYRCMISYGGGADYKRITVKVNAGGGGSGGGGSGGGGSSQQIYGVVYGNVTFHVPSNVPLKEVLWKKQKDKVAELENSEFRAFSSFKNRVYLDTVSGSLTIYNLTSSDEDEYEMESPNITDTMKFFLYVLESGSGGGGSEPKSSDKTHTCPPCPAPEAEGAPSVFLFPPKPKDTLMISRTPEVTCVVVDVSHEDPEVKFNWYVDGVEVHNAKTKPREEQYNSTYRVVSVLTVLHQDWLNGKEYKCKVSNKALPAPIEKTISKAKGQPREPQVYTLPPSRDELTKNQVSLTCLVKGFYPSDIAVEWESNGQPENNYKTTPPVLDSDGSFFLYSKLTVDKSRWQQGNVFSCSVMHEALHNHYTQKSLSLSPG
As to B11, the “100 nM IFN-gamma (pg/mL), SEB assay” value with PD-1 [3] and with CD2 [4] was 9820 pg/mL each time.

The term EC50 denotes the concentration needed to bring the measured effect to its halfway point. A lower EC50 goes with an effect from little substance.

For the origin of these results see US20250163127A1 (published 2025).
